Experimental data: the supplement of paper PMC7125110
± gives the standard error. For part of these data: Variants at the floor of the assay were thinned out.

B1: glmS ribozyme (parent)
chain: AUAAAAGCGCCAGAACUACAGAAAUGUAGUUGACGAGGAGGAGGUUUAUCGAAUUUUCGGCGGAUGCCUCCAAA

Assays:
Settings in all cases: with glucosamine-6-phosphate
glucosamine-6-phosphate [1] = variants of: B1; experiment: kcat; higher = faster cleavage; RNA array
Procedure, shortened: (§1)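 Barcoded ribozyme variants were transcribed in situ on sequenced MiSeq chips by E. coli RNA polymerase. At 37 °C, a hybridised Cy3 probe tracked them while glucosamine-6-phosphate (40 μM to 10 mM) in HEPES/KCl/Mg(OAc)2 buffer flowed in and tiles were imaged over ~14 h. Per-tile medians of signals normalised to baseline and to non-cleaving reference variants were fit to one- or two-exponential decays, giving kobs. kcat and KM came from weighted Michaelis–Menten fits across concentrations.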

glucosamine-6-phosphate [2] = variants of: B1; experiment: self-cleavage kobs at 160 uM GlcN6P; higher = faster cleavage; RNA array
Procedure, shortened: as §1

glucosamine-6-phosphate [3] = variants of: B1; experiment: self-cleavage kobs at 10000 uM GlcN6P; higher = faster cleavage; RNA array
Procedure, shortened: as §1

glucosamine-6-phosphate [4] = variants of: B1; experiment: KM; higher = weaker cofactor use; RNA array
Procedure, shortened: as §1

glucosamine-6-phosphate [5] = variants of: B1; experiment: self-cleavage kobs at 640 uM GlcN6P; higher = faster cleavage; RNA array
Procedure, shortened: as §1

glucosamine-6-phosphate [6] = variants of: B1; experiment: self-cleavage kobs at 2500 uM GlcN6P; higher = faster cleavage; RNA array
Procedure, shortened: as §1

glucosamine-6-phosphate [7] = variants of: B1; experiment: self-cleavage kobs at 40 uM GlcN6P; higher = faster cleavage; RNA array
Procedure, shortened: as §1

| Variant | kcat (glucosamine-6-phosphate [1]) | self-cleavage kobs at 160 uM GlcN6P (glucosamine-6-phosphate [2]) | self-cleavage kobs at 10000 uM GlcN6P (glucosamine-6-phosphate [3]) | KM (glucosamine-6-phosphate [4]) | self-cleavage kobs at 640 uM GlcN6P (glucosamine-6-phosphate [5]) | self-cleavage kobs at 2500 uM GlcN6P (glucosamine-6-phosphate [6]) | self-cleavage kobs at 40 uM GlcN6P (glucosamine-6-phosphate [7]) |
| --- | --- | --- | --- | --- | --- | --- | --- |
| C11U C50A | < 1e-05 s⁻¹ | < 1e-05 s⁻¹ | < 1e-05 s⁻¹ |  |  |  |  |
| A12G A15U | 0.000449 ± 5.3e-05 s⁻¹ |  | 0.000288 ± 2.6e-05 s⁻¹ | 5850 ± 1100 µM | 4.86e-05 ± 6.8e-06 s⁻¹ | 0.000123 ± 1.6e-05 s⁻¹ |  |
| A12U C61U | 2.71e-05 ± 7.4e-06 s⁻¹ |  |  |  |  | 3.1e-05 ± 1.2e-05 s⁻¹ |  |
| C11U A33U | 7.95e-05 ± 1.1e-06 s⁻¹ |  | 6.9e-05 ± 5.3e-06 s⁻¹ | 1500 ± 99 µM | 2.29e-05 ± 1.1e-05 s⁻¹ | 5.06e-05 ± 9.1e-06 s⁻¹ |  |
| C11U A33C | 1.8e-05 ± 2.7e-06 s⁻¹ |  |  | 8710 ± 2600 µM |  |  |  |
| G13A A14U | 0.000964 ± 0.00014 s⁻¹ | 5.13e-05 ± 1.1e-05 s⁻¹ | 0.000781 ± 8e-05 s⁻¹ | 3120 ± 800 µM | 0.000184 ± 2.9e-05 s⁻¹ | 0.000365 ± 5e-05 s⁻¹ |  |
| G13A A14C | 0.000465 ± 2.9e-05 s⁻¹ | 2.93e-05 ± 1e-05 s⁻¹ | 0.000353 ± 8.7e-05 s⁻¹ | 2440 ± 230 µM | 9.47e-05 ± 1.2e-05 s⁻¹ | 0.000245 ± 3.2e-05 s⁻¹ |  |
| A12U C58G | 0.0011 ± 0.00023 s⁻¹ | 2.07e-05 ± 6e-06 s⁻¹ | 0.000677 ± 6.4e-05 s⁻¹ | 6470 ± 2000 µM | 0.000109 ± 1.2e-05 s⁻¹ | 0.000287 ± 3e-05 s⁻¹ |  |
| A12U C58U | 7.97e-05 ± 5.4e-06 s⁻¹ |  | 7.81e-05 ± 1.1e-05 s⁻¹ | 662 ± 220 µM | 4.45e-05 ± 1.4e-05 s⁻¹ | 5.86e-05 ± 9.3e-06 s⁻¹ | < 1e-05 s⁻¹ |
| A12U C16G G40C | 0.000662 ± 7.1e-05 s⁻¹ |  | 0.000481 ± 9.8e-05 s⁻¹ | 3490 ± 700 µM | 9.91e-05 ± 3.2e-05 s⁻¹ | 0.000322 ± 0.00011 s⁻¹ |  |
| A12C G37A | 0.00391 ± 0.0011 s⁻¹ | 0.000248 ± 4e-05 s⁻¹ | 0.00402 ± 0.00063 s⁻¹ | 2210 ± 860 µM | 0.000756 ± 0.00011 s⁻¹ | 0.00182 ± 0.00028 s⁻¹ | 8.92e-05 ± 1.1e-05 s⁻¹ |
| A12G C16A | 3.87e-05 ± 9.1e-07 s⁻¹ |  | 3.41e-05 ± 6.7e-06 s⁻¹ | 1330 ± 200 µM |  |  | < 1e-05 s⁻¹ |
| A12G C16G | 0.000144 ± 1.3e-05 s⁻¹ |  | 8.35e-05 ± 1.2e-05 s⁻¹ | 7160 ± 1300 µM |  | 3.92e-05 ± 1.4e-05 s⁻¹ |  |
| A12C A33U | 0.000132 ± 1.7e-05 s⁻¹ |  | 9.81e-05 ± 6.4e-06 s⁻¹ | 3330 ± 1200 µM |  | 6.22e-05 ± 7.4e-06 s⁻¹ |  |
| A12C A33C | 0.000196 ± 1.6e-05 s⁻¹ |  | 0.000156 ± 1.8e-05 s⁻¹ | 2860 ± 540 µM | 3.98e-05 ± 9.4e-06 s⁻¹ | 8.11e-05 ± 1.8e-05 s⁻¹ |  |
| A12G U46G | 0.000475 ± 2.8e-05 s⁻¹ |  | 0.000248 ± 2.3e-05 s⁻¹ | 9040 ± 890 µM | 2.82e-05 ± 1.2e-05 s⁻¹ | 0.000105 ± 1.5e-05 s⁻¹ |  |
| A12G G40C | 0.000334 ± 3.5e-05 s⁻¹ |  | 0.000248 ± 3.1e-05 s⁻¹ | 3830 ± 720 µM | 5.37e-05 ± 1e-05 s⁻¹ | 0.000124 ± 1.6e-05 s⁻¹ |  |
| C11U C67U | 0.000394 ± 2.4e-05 s⁻¹ | 5.21e-05 ± 1e-05 s⁻¹ | 0.000364 ± 3.9e-05 s⁻¹ | 925 ± 130 µM | 0.000171 ± 1.8e-05 s⁻¹ | 0.000278 ± 3e-05 s⁻¹ |  |
| C11U C68U | 0.000418 ± 5.2e-05 s⁻¹ | 6.59e-05 ± 1.1e-05 s⁻¹ | 0.00036 ± 3.9e-05 s⁻¹ | 1070 ± 290 µM | 0.000135 ± 1.7e-05 s⁻¹ | 0.000329 ± 3.1e-05 s⁻¹ |  |
| A12U U46G | 0.023 ± 0.007 s⁻¹ |  | 0.0167 ± 0.0047 s⁻¹ | 2700 ± 1100 µM | 0.00656 ± 0.0018 s⁻¹ | 0.0119 ± 0.0035 s⁻¹ | 0.000297 ± 7.2e-05 s⁻¹ |
| C11U A64G | 0.00227 ± 0.00061 s⁻¹ | 0.0002 ± 2.5e-05 s⁻¹ | 0.00247 ± 0.00021 s⁻¹ | 1370 ± 580 µM | 0.000741 ± 6.4e-05 s⁻¹ | 0.00108 ± 0.00014 s⁻¹ | 8.94e-05 ± 9.3e-06 s⁻¹ |
| C11U A39G | 0.00395 ± 0.00067 s⁻¹ | 0.00047 ± 9.6e-05 s⁻¹ | 0.00358 ± 0.00044 s⁻¹ | 1780 ± 480 µM | 0.00116 ± 0.00026 s⁻¹ | 0.00192 ± 0.00036 s⁻¹ | 7.9e-05 ± 1.3e-05 s⁻¹ |
| G13A C58G | 0.000377 ± 8.6e-05 s⁻¹ |  | 0.000217 ± 3.4e-05 s⁻¹ | 7150 ± 2500 µM | 2.8e-05 ± 7.8e-06 s⁻¹ | 0.000101 ± 1.7e-05 s⁻¹ |  |
| C11U G41A | 8.97e-05 ± 1e-05 s⁻¹ |  | 7.91e-05 ± 8.6e-06 s⁻¹ |  | 3.01e-05 ± 1.2e-05 s⁻¹ | 8.81e-05 ± 1.8e-05 s⁻¹ |  |
| C11U G41U | 9.92e-05 ± 3.5e-06 s⁻¹ |  | 9.12e-05 ± 1e-05 s⁻¹ | 740 ± 130 µM | 4.38e-05 ± 1.5e-05 s⁻¹ | 8.28e-05 ± 1.7e-05 s⁻¹ |  |
| A12G A14U | 0.000731 ± 0.0002 s⁻¹ |  | 0.000524 ± 6.4e-05 s⁻¹ | 5700 ± 2200 µM | 8.27e-05 ± 8e-06 s⁻¹ | 0.000195 ± 1.9e-05 s⁻¹ |  |
| G13A U45A | 0.00257 ± 0.00041 s⁻¹ | 5.26e-05 ± 9.7e-06 s⁻¹ | 0.00152 ± 0.00022 s⁻¹ | 6910 ± 1400 µM | 0.000237 ± 3.3e-05 s⁻¹ | 0.000649 ± 0.00012 s⁻¹ |  |
| G13A G29C | 0.00011 ± 4.9e-06 s⁻¹ |  | 9.3e-05 ± 1.7e-05 s⁻¹ | 1990 ± 240 µM |  | 5.98e-05 ± 1.3e-05 s⁻¹ |  |
| G13A C71G | 5.85e-05 ± 4.1e-06 s⁻¹ |  | 5.48e-05 ± 7e-06 s⁻¹ |  | 5.42e-05 ± 1.3e-05 s⁻¹ | 5.71e-05 ± 9.7e-06 s⁻¹ |  |
| G13A A39U | 0.000349 ± 1.8e-05 s⁻¹ |  | 0.000277 ± 3.4e-05 s⁻¹ | 2910 ± 270 µM | 6.49e-05 ± 8.9e-06 s⁻¹ | 0.000153 ± 2e-05 s⁻¹ |  |
